T1: nSR100 (Mus musculus, UniProt Q8BKA3)
T1 construct: host or cells: mouse N2A cells
T1 sequence (Q8BKA3 1-608): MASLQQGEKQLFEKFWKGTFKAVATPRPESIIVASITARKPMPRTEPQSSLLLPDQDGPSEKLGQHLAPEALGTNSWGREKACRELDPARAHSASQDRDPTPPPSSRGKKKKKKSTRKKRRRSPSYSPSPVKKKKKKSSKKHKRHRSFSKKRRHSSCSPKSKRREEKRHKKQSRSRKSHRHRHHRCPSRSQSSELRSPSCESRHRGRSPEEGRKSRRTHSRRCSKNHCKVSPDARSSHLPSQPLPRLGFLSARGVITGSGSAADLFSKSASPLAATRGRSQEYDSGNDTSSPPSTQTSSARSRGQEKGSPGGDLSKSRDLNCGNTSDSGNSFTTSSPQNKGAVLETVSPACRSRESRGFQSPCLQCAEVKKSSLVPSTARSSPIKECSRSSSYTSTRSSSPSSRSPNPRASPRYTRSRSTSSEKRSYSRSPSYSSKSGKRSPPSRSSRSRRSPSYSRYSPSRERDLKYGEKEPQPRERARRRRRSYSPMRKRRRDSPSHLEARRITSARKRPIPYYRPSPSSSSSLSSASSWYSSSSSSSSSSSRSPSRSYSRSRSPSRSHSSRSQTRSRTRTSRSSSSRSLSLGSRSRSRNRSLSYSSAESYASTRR

B1: Rad23b (protein, UniProt P54728 1-416, looked up)
UV excision repair protein …: MQVTLKTLQQQTFKIDIDPEETVKALKEKIESEKGKDAFPVAGQKLIYAGKILSDDTALKEYKIDEKNFVVVMVTKPKAVTTAVPATTQPSSTPSPTAVSSSPAVAAAQAPAPTPALPPTSTPASTAPASTTASSEPAPAGATQPEKPAEKPAQTPVLTSPAPADSTPGDSSRSNLFEDATSALVTGQSYENMVTEIMSMGYEREQVIAALRASFNNPDRAVEYLLMGIPGDRESQAVVDPPPQAVSTGTPQSPAVAAAAATTTATTTTTSGGHPLEFLRNQPQFQQMRQIIQQNPSLLPALLQQIGRENPQLLQQISQHQEHFIQMLNEPVQEAGSQGGGGGGGGGGGGGGGGGIAEAGSGHMNYIQVTPQEKEAIERLKALGFPEGLVIQAYFACEKNENLAANFLLQQNFDED
B2: Ftsjd2 (protein, UniProt Q9DBC3 1-837, looked up)
Cap-specific mRNA …: MKRRTDPECTAPLKKQKRIGELARHLSSTSDDEPLSSVNHAAKASATSLSGSDSETEGKQPCSDDFKDAFKADSLVEGTSSRYSMYNSVSQRLMAKMGFREGEGLGKYSQGRKDIVETSNQKGRRGLGLTLQGFDQELNVDWRDEPEPNACEQVSWFPECTTEIPDSREMSDWMVVGKRKMVIEDETEFCGEELLHSMLKCKSVFDILDGEEMRRARTRANPYEMIRGVFFLNRAAMKMANMDFVFDRMFTNPLDSSGKPLLKESDIDLLYFADVCAGPGGFSEYVLWRKKWHAKGFGMTLKGPNDFKLEDFYSASSELFEPYYGEGGVDGDGDITRPENINAFRNFVLDNTDRKGVHFVMADGGFSVEGQENLQEILSKQLLLCQFLMALSVVRTGGHFVCKTFDLFTPFSVGLIYLLYCCFERVCLFKPITSRPANSERYVVCKGLKVGIDDVREYLFSVNIKLNQLRNTESDVNLVVPLMVIKGDHEFNDYMIRSNESYCSLQIKALAKIHAFVQDTTLSEPRQAEIRKECLQLWKIPDQARVAPSSSDPKFKFFELIKDTDINIFSYKPTLLTAKTLEKIRPVLEYRCMVSGSEQKFLLGLGKSQIYTWDGRQSDRWVKLDLKTELPRDTLLCVEIVHELKGEGKAQRKISAIHILDVLVLNGSDVREQHFNQRIQLAEKFVKAVSKPSRPDMNPIRVKEVYRLEEMEKIFVRLEMKLIKGSGGTPKLSYTGRDDRHFVPTGVYIVRTVNEPWTMGFSKSNNRKFFYNKKTQKSVYALPTESIAPFHTCYYSRLFWEWGDGFHMRDSQKPQDPDKLSKEDVLSFIQSHNPLGP
B3: Sf3b3 (protein, UniProt Q921M3 1-1217, looked up)
Splicing factor 3B subunit 3: MFLYNLTLQRATGISFAIHGNFSGTKQQEIVVSRGKILELLRPDPNTGKVHTLLTVEVFGVIRSLMAFRLTGGTKDYIVVGSDSGRIVILEYQPSKNMFEKIHQETFGKSGCRRIVPGQFLAVDPKGRAVMISAIEKQKLVYILNRDAAARLTISSPLEAHKANTLVYHVVGVDVGFENPMFACLEMDYEEADNDPTGEAAANTQQTLTFYELDLGLNHVVRKYSEPLEEHGNFLITVPGGSDGPSGVLICSENYITYKNFGDQPDIRCPIPRRRNDLDDPERGMIFVCSATHKTKSMFFFLAQTEQGDIFKITLETDEDMVTEIRLKYFDTVPVAAAMCVLKTGFLFVASEFGNHYLYQIAHLGDDDEEPEFSSAMPLEEGDTFFFQPRPLKNLVLVDELDSLSPILFCQIADLANEDTPQLYVACGRGPRSSLRVLRHGLEVSEMAVSELPGNPNAVWTVRRHIEDEFDAYIIVSFVNATLVLSIGETVEEVTDSGFLGTTPTLSCSLLGDDALVQVYPDGIRHIRADKRVNEWKTPGKKTIVKCAVNQRQVVIALTGGELVYFEMDPSGQLNEYTERKEMSADVVCMSLANVPPGEQRSRFLAVGLVDNTVRIISLDPSDCLQPLSMQALPAQPESLCIVEMGGTEKQDELGERGSIGFLYLNIGLQNGVLLRTVLDPVTGDLSDTRTRYLGSRPVKLFRVRMQGQEAVLAMSSRSWLSYSYQSRFHLTPLSYETLEFASGFASEQCPEGIVAISTNTLRILALEKLGAVFNQVAFPLQYTPRKFVIHPESNNLIIIETDHNAYTEATKAQRKQQMAEEMVEAAGEDERELAAEMAAAFLNENLPESIFGAPKAGNGQWASVIRVMNPIQGNTLDLVQLEQNEAAFSVAVCRFSNTGEDWYVLVGVAKDLILSPRSVAGGFVYTYKLVNNGEKLEFLHKTPVEEVPAAIAPFQGRVLIGVGKLLRVYDLGKKKLLRKCENKHIANYISGIQTIGHRVIVSDVQESFIWVRYKRNENQLIIFADDTYPRWVTTASLLDYDTVAGADKFGNICVVRLPPNTNDEVDEDPTGNKALWDRGLLNGASQKAEVIMNYHVGETVLSLQKTTLIPGGSESLVYTTLSGGIGILVPFTSHEDHDFFQHVEMHLRSEHPPLCGRDHLSFRSYYFPVKNVIDGDLCEQFNSMEPNKQKNVSEELDRTPPEVSKKLEDIRTRYAF
B4: Srrm1 (protein, UniProt Q52KI8 1-946, looked up)
Serine/arginine repetitive …: MDAGFFRGTSAEQDNRFSNKQKKLLKQLKFAECLEKKVDMSKVNLEVIKPWITKRVTEILGFEDDVVIEFIFNQLEVKNPDSKMMQINLTGFLNGKNAREFMGELWPLLLSAQENIAGIPSAFLELKKEEIKQRQIEQEKLASLKKQDEDKDKRDKEEKESSREKRERSRSPRRRKSRSPSPRRRSSPVRRERKRSHSRSPRHRTKSRSPSPAPEKKEKSPELPEPSVRMKDSSVQEATSTSDILKAPKPEPVPEPKEPSPEKNSKKEKEKTRPRSRSRSKSRSRTRSRSPSHTRPRRRHRSRSRSYSPRRRPSPRRRPSPRRRTPPRRMPPPPRHRRSRSPGRRRRRSSASLSGSSSSSSSSRSRSPPKKPPKRTSSPPRKTRRLSPSASPPRRRHRPSSPATPPPKTRHSPTPQQSNRTRKSRVSVSPGRTSGKVTKHKGTEKRESPSPAPKPRKVELSESEEDKGSKMAAADSVQQRRQYRRQNQQSSSDSGSSSTSEDERPKRSHVKNGEVGRRRRHSPSRSASPSPRKRQKETSPRMQMGKRWQSPVTKSSRRRRSPSPPPARRRRSPSPAPPPPPPPPPPRRRRSPTPPPRRRTPSPPPRRRSPSPRRYSPPIQRRYSPSPPPKRRTASPPPPPKRRASPSPPPKRRVSHSPPPKQRSPTVTKRRSPSLSSKHRKGSSPGRSTREARSPQPNKRHSPSPRPRAPQTSSPPPVRRGASASPQGRQSPSPSTRPIRRVSRTPEPKKIKKTAMATQRNIRRVSKSPKADSLSRAASPSPQSVRRVSSSRSVSGSPEPAAKKPPAPPSPVQSQSPSTNWSPAVPAKKAKSPTPSLSPARNSDQEGGGKKKKKKKDKKHKKDKKHKKHKKHKKEKAVTIATPATAAPAAVSAATTTSAQEEPAAAPEPRKETESEAEDDNLDDLERHLREKALRSMRKAQVSPQS
B5: Sf3a1 (protein, UniProt Q8K4Z5 1-791, looked up)
Splicing factor 3A subunit 1: MQAGPVQAVPPPPPVATESKQPIEEEASSKEDPTPSKPVVGIIYPPPEVRNIVDKTASFVARNGPEFEARIRQNEINNPKFNFLNPNDPYHAYYRHKVSEFKEGKAQEPSAAIPKVMQQQQQATQQQLPQKVQAQVIQETIVPKEPPPEFEFIADPPSISAFDLDVVKLTAQFVARNGRQFLTQLMQKEQRNYQFDFLRPQHSLFNYFTKLVEQYTKILIPPKGLFSKLKKEAENPREVLDQVCYRVEWAKFQERERKKEEEEKEKERVAYAQIDWHDFVVVETVDFQPNEQGNFPPPTTPEELGARILIQERYEKFGESEEVEMEVESDEEDQEKAEETPSQLDQDTQVQDMDEGSDDEEEGQKVPPPPETPMPPPLPPTPDQVIVRKDYDPKASKPLPPAPAPDEYLVSPITGEKIPASKMQEHMRIGLLDPRWLEQRDRSIREKQSDDEVYAPGLDIESSLKQLAERRTDIFGVEETAIGKKIGEEEIQKPEEKVTWDGHSGSMARTQQAAQANITLQEQIEAIHKAKGLVPEDDTKEKIGPSKPNEIPQQPPPPSSATNIPSSAPPITSVPRPPAMPPPVRTTVVSAVPVMPRPPMASVVRLPPGSVIAPMPPIIHAPRINVVPMPPAAPPIMAPRPPPMIVPTAFVPAPPVAPVPAPAPMPPVHPPPPMEDEPPSKKLKTEDSLMPEEEFLRRNKGPVSIKVQVPNMQDKTEWKLNGQGLVFTLPLTDQVSVIKVKIHEATGMPAGKQKLQYEGIFIKDSNSLAYYNMASGAVIHLALKERGGRKK

Biological target: T1, nSR100
Experiment: AP-MS nSR100 interaction partners from mouse N2A cells (Table 5)
Type: binding
Settings: bait Srrm4
Text: By applying affinity purification coupled to mass-spectrometry (AP-MS), several interaction nSR100 partner proteins were detected that provide insight into mechanisms of post-translational regulation of nSR100 levels.

AvgP (average of the SAINT scores)	MaxP (maximal SAINT score)	Molecule
1	1	B1
1	1	B2
1	1	B3
1	1	B4
1	1	B5

Same assay, conditions: bait Srrm4, 0.1 added to prevent division by 0

FoldChange between the prey Avg spectra of the bait and control purifications	Molecule
35	B1
40	B2
3.48	B3
6.78	B4
8.33	B5

Same assay, conditions: bait Srrm4, 2 replicates

AvgSpec (average number of spectra per replicate)	Molecule
3.5	B1
4	B2
97.5	B3
30.5	B4
25	B5

Same assay, conditions: bait Srrm4, biological replicate 1 (first number of the cell), AP-MS

Spectra (number of spectra for the prey in the purification of the bait)	Molecule
3	B1
4|4	B2
90	B3
25	B4
20	B5

Same assay, conditions: bait Srrm4, biological replicate 2 (second number of the cell), AP-MS

Spectra (number of spectra for the prey in the purification of the bait)	Molecule
4	B1
4|4	B2
105	B3
36	B4
30	B5

Same assay, conditions: bait Srrm4, sum of spectra over 2 replicates

SpecSum	Molecule
7	B1
8	B2
195	B3
61	B4
50	B5

Reference: patent publication US10772928B2, “Modulation and detection of a neuronal alternative splicing regulatory network for treatment and diagnosis of neurological disorders” (The Governing Council of the University of Toronto, priority 2014, dated 2020)
